From article PMC7772773, “HTR6 and SSTR3 ciliary targeting relies on both IC3 loops and C-terminal tails” (Life Science Alliance, 2020)

What was measured:
[1] = target: T1, CD8α (aa 1–206)-(HTR6-CT)-BioID2-HA ( | mouse, UniProt P01732 22-206; Q9R1C8 326-440); test: proximity labelling; BioID2 proximity biotinylation in HEK293T cells cotransfected with EGFP-TEV-Stag-TULP3 (or S-tagged TULP3-NTD or -CTD) and CD8α(1–206)-(IC3 or CT of a GPCR)-BioID2-HA; 50 μM biotin for the last 16 h; TULP3 purified from lysate by tandem purification (GFP-Trap, TEV digestion, S-protein agarose); its biotinylation detected with NeutrAvidin-HRP, relative to total TULP3 and normalised to the β2AR …; conditions: partners not purified
T1 construct: signal peptide in the construct; CD8α, extracellular and transmembrane regions, aa 1–206; serotonin receptor 6 (HTR6), mouse, C-terminal tail (HTR6-CT, aa 326–440); also called HTR6-CT(WT); wild-type HTR6-CT; source: HEK293T, cotransfected, in cells; not shown: BioID2, C-terminal, kept; HA, C-terminal, kept
T1 sequence (P01732 22-206, tags or fused parts left off): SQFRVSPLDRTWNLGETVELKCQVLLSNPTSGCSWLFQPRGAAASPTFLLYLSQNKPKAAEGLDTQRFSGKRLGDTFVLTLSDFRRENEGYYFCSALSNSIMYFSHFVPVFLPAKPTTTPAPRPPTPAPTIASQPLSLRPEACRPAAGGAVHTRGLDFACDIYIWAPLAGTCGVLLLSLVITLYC

[2] = target: T2, CD8α (aa 1–206)-(SSTR3-CT)-BioID2-HA ( | mouse, UniProt P01732 22-206; P30935 326-428); test: as above; conditions: partners not purified
T2 construct: signal peptide in the construct; CD8α, extracellular and transmembrane regions, aa 1–206; somatostatin receptor 3 (SSTR3), mouse, C-terminal tail (SSTR3-CT, aa 326–428); source: HEK293T, cotransfected, in cells; not shown: BioID2, C-terminal, kept; HA, C-terminal, kept
T2 sequence (P01732 22-206, tags or fused parts left off): as above

- fold biotinylated TULP3 over β2AR-CT control [1]: 4 fold
- fold biotinylated TULP3 over β2AR-CT control [2]: 20 fold
B1: EGFP-TEV-Stag-TULP3 (natural protein, UniProt O75386 1-442, looked up)
chain: MEASRCRLSPSGDSVFHEEMMKMRQAKLDYQRLLLEKRQRKKRLEPFMVQPNPEARLRRAKPRASDEQTPLVNCHTPHSNVILHGIDGPAAVLKPDEVHAPSVSSSVVEEDAENTVDTASKPGLQERLQKHDISESVNFDEETDGISQSACLERPNSASSQNSTDTGTSGSATAAQPADNLLGDIDDLEDFVYSPAPQGVTVRCRIIRDKRGMDRGLFPTYYMYLEKEENQKIFLLAARKRKKSKTANYLISIDPVDLSREGESYVGKLRSNLMGTKFTVYDRGICPMKGRGLVGAAHTRQELAAISYETNVLGFKGPRKMSVIIPGMTLNHKQIPYQPQNNHDSLLSRWQNRTMENLVELHNKAPVWNSDTQSYVLNFRGRVTQASVKNFQIVHKNDPDYIVMQFGRVADDVFTLDYNYPLCAVQAFGIGLSSFDSKLACE
notes: TULP3, ciliary trafficking adapter; the printed limit of its C-terminal domain (aa 184–442) points to a protein of 442 aa; A TEV site lies between EGFP and the S-tag; EGFP is cut off only after the first immunoprecipitation, that is after the labelling in cells; also called S-tagged TULP3; not shown: EGFP, N-terminal, kept; S-tag, N-terminal, kept
